Measured values as given in the supplement of paper PMC10567573.

B1: SLC35F2 (parent)
chain: QYLAERYKVNTPMLQSFINYCLLF
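Further: lentivirally expressed fusions sorted by FACS into six bins by GFP to DsRed ratio, PSI derived from sequencing read proportions per bin multiplied by bin number.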

Variants of: B1
Assay: protein stability index of a GFP-peptide fusion (GPS, HEK-293T) (PSI 1-6); higher = more stable
Conditions: c terminus: a fixed tail appended
In the case of QYLAERYKVNTPMLQCFINYCLLF [S16C], the protein stability index is reported as 2.44.
QYLAERYKVNTPMLQIFINYCLLF [S16I] showed a protein stability index of 3.
QYLAERYKVNTPMLQEFINYCLLF [S16E] showed a protein stability index of 2.19.
QYLAERYKVNTPMLQKFINYCLLF [S16K] gave a protein stability index of 2.76.
For QYLAERYKVNTPMLQLFINYCLLF [S16L], the protein stability index was 3.45.
For QYLAERYKVNTPMLQHFINYCLLF [S16H], the protein stability index was 1.83.
QYLAERYKVNTPMLQVFINYCLLF [S16V] showed a protein stability index of 3.01.
QYLAERYKVNTPMLQWFINYCLLF [S16W] showed a protein stability index of 1.87.
QYLAERYKVNTPMLQYFINYCLLF [S16Y] showed a protein stability index of 1.79.
With QYLAERYKVNTPMLQQFINYCLLF [S16Q] the protein stability index was 1.65.
QYLAERYKVNTPMLQDFINYCLLF [S16D] gave a protein stability index of 3.
QYLAERYKVNTPMLQGFINYCLLF [S16G] showed a protein stability index of 2.22.
Work on QYLAERYKVNTPMLQRFINYCLLF [S16R] yielded a protein stability index of 2.63.
With QYLAERYKVNTPMLQFFINYCLLF [S16F] the protein stability index was 2.11.
Variant QYLAERYKVNTPMLQNFINYCLLF [S16N] has a protein stability index of 2.36.
In the case of QYLAERYKVNTPMLQAFINYCLLF [S16A], the protein stability index is reported as 2.43.
Work on QYLAERYKVNTPMLQPFINYCLLF [S16P] yielded a protein stability index of 3.19.
For QYLAERYKVNSPMLQSFINYCLLF [T11S], the protein stability index was 2.65.
In the case of QYLAERYKVNQPMLQSFINYCLLF [T11Q], the protein stability index is reported as 2.96.
Variant QYLAERYKVNWPMLQSFINYCLLF [T11W] has a protein stability index of 2.12.
QYLAERYKVNYPMLQSFINYCLLF [T11Y] gave a protein stability index of 3.51.
Variant QYLAERYKVNLPMLQSFINYCLLF [T11L] has a protein stability index of 2.89.
QYLAERYKVNMPMLQSFINYCLLF [T11M] showed a protein stability index of 2.69.
In the case of QYLAERYKVNIPMLQSFINYCLLF [T11I], the protein stability index is reported as 2.6.
Variant QYLAERYKVNPPMLQSFINYCLLF [T11P] has a protein stability index of 1.8.
QYLAERYKVNKPMLQSFINYCLLF [T11K] showed a protein stability index of 2.21.
Variant QYLAERYKVNRPMLQSFINYCLLF [T11R] has a protein stability index of 2.57.
Variant QYLAERYKVNVPMLQSFINYCLLF [T11V] has a protein stability index of 2.5.
With QYLAERYKVNNPMLQSFINYCLLF [T11N] the protein stability index was 2.71.
For QYLAERYKVNTPMLQSFYNYCLLF [I18Y], the protein stability index was 2.15.
Variant QYLAERYKVNTPMLQSFMNYCLLF [I18M] has a protein stability index of 2.56.
QYLAERYKVNTPMLQSFANYCLLF [I18A] gave a protein stability index of 1.93.
For QYLAERYKVNTPMLQSFKNYCLLF [I18K], the protein stability index was 1.99.
For QYLAERYKVNTPMLQSFVNYCLLF [I18V], the protein stability index was 1.34.
For QYLAERYKVNTPMLQSFPNYCLLF [I18P], the protein stability index was 3.3.
With QYLAERYKVNTPMLQSFWNYCLLF [I18W] the protein stability index was 2.53.
Work on QYLAERYKVNTPMLQSFQNYCLLF [I18Q] yielded a protein stability index of 2.48.
QYLAERYKVNTPMLQSFRNYCLLF [I18R] gave a protein stability index of 3.24.
With QYLAERYKVNTPMLQSFDNYCLLF [I18D] the protein stability index was 3.29.
QYLAERYKVNTPMLQSFNNYCLLF [I18N] gave a protein stability index of 2.1.
Variant QYLAERYKVNTPMLQSFENYCLLF [I18E] has a protein stability index of 2.75.
With QYLAERYKVNTPMLQSFSNYCLLF [I18S] the protein stability index was 2.34.
Work on QYLAERYKVNTPMLQSFCNYCLLF [I18C] yielded a protein stability index of 3.62.
QYLAERYKVNTPMLQSFGNYCLLF [I18G] showed a protein stability index of 1.92.
Variant QYLAERYKVNTPMLQSFLNYCLLF [I18L] has a protein stability index of 2.96.
QYLAERYKVNTPMLQSFFNYCLLF [I18F] gave a protein stability index of 1.98.
Work on QYLAERYKVNTPMLQSFHNYCLLF [I18H] yielded a protein stability index of 2.9.
Variant QYLAERYKVNTPMLQSFTNYCLLF [I18T] has a protein stability index of 2.82.
QYLAERYKVNTPMLQSFIHYCLLF [N19H] gave a protein stability index of 2.18.
For QYLAERYKVNTPMLQSFILYCLLF [N19L], the protein stability index was 1.71.
Work on QYLAERYKVNTPMLQSFIQYCLLF [N19Q] yielded a protein stability index of 3.31.
Variant QYLAERYKVNTPMLQSFIWYCLLF [N19W] has a protein stability index of 2.94.
For QYLAERYKVNTPMLQSFITYCLLF [N19T], the protein stability index was 2.51.
Work on QYLAERYKVNTPMLQSFIIYCLLF [N19I] yielded a protein stability index of 1.48.
With QYLAERYKVNTPMLQSFIEYCLLF [N19E] the protein stability index was 2.22.
QYLAERYKVNTPMLQSFIGYCLLF [N19G] gave a protein stability index of 2.7.
QYLAERYKVNTPMLQSFIAYCLLF [N19A] gave a protein stability index of 3.55.
With QYLAERYKVNTPMLQSFIMYCLLF [N19M] the protein stability index was 2.08.
In the case of QYLAERYKVNTPMLQSFIFYCLLF [N19F], the protein stability index is reported as 2.49.
QYLAERYKVNTPMLQSFIRYCLLF [N19R] gave a protein stability index of 2.35.
Work on QYLAERYKVNTPMLQSFIPYCLLF [N19P] yielded a protein stability index of 2.7.
With QYLAERYKVNTPMLQSFIYYCLLF [N19Y] the protein stability index was 2.31.
In the case of QYLAERYKVNTPMLQSFIDYCLLF [N19D], the protein stability index is reported as 2.49.
QYLAERYKVNTPMLQSFIVYCLLF [N19V] showed a protein stability index of 2.75.
In the case of QYLAERYKVNTPMLQSFIKYCLLF [N19K], the protein stability index is reported as 2.56.
In the case of QYLAERYKVNTPMLQSFISYCLLF [N19S], the protein stability index is reported as 2.38.
Work on QYLAERYKVNTPLLQSFINYCLLF [M13L] yielded a protein stability index of 1.83.
QYLAERYKVNTPKLQSFINYCLLF [M13K] gave a protein stability index of 2.04.
In the case of QYLAERYKVNTPNLQSFINYCLLF [M13N], the protein stability index is reported as 3.77.
Work on QYLAERYKVNTPILQSFINYCLLF [M13I] yielded a protein stability index of 2.52.
In the case of QYLAERYKVNTPSLQSFINYCLLF [M13S], the protein stability index is reported as 2.93.
QYLAERYKVNTPELQSFINYCLLF [M13E] showed a protein stability index of 2.99.
In the case of QYLAERYKVNTPHLQSFINYCLLF [M13H], the protein stability index is reported as 2.59.
For QYLAERYKVNTPTLQSFINYCLLF [M13T], the protein stability index was 2.74.
With QYLAERYKVNTPWLQSFINYCLLF [M13W] the protein stability index was 1.9.
For QYLAERYKVNTPDLQSFINYCLLF [M13D], the protein stability index was 2.2.
Work on QYLAERYKVNTPYLQSFINYCLLF [M13Y] yielded a protein stability index of 2.4.
Work on QYLAERYKVNTPCLQSFINYCLLF [M13C] yielded a protein stability index of 3.76.
For QYLAERYKVNTPFLQSFINYCLLF [M13F], the protein stability index was 2.34.
In the case of QYLAERYKVNTPALQSFINYCLLF [M13A], the protein stability index is reported as 3.48.
QYLAERYKVNTPPLQSFINYCLLF [M13P] gave a protein stability index of 2.69.
Work on QYLAERYKVNTPGLQSFINYCLLF [M13G] yielded a protein stability index of 2.2.
Variant QYLAERYKVNTPRLQSFINYCLLF [M13R] has a protein stability index of 2.64.
Variant QYLAERYKVNTPVLQSFINYCLLF [M13V] has a protein stability index of 3.22.
For QYLAERYKVNTPQLQSFINYCLLF [M13Q], the protein stability index was 2.02.
Work on QYLAERYKVNTPMLQSFINYDLLF [C21D] yielded a protein stability index of 2.36.
Work on QYLAERYKVNTPMLQSFINYHLLF [C21H] yielded a protein stability index of 2.29.
For QYLAERYKVNTPMLQSFINYELLF [C21E], the protein stability index was 1.65.
For QYLAERYKVNTPMLQSFINYFLLF [C21F], the protein stability index was 1.99.
QYLAERYKVNTPMLQSFINYALLF [C21A] gave a protein stability index of 3.53.
Work on QYLAERYKVNTPMLQSFINYLLLF [C21L] yielded a protein stability index of 2.52.
With QYLAERYKVNTPMLQSFINYKLLF [C21K] the protein stability index was 3.46.
Variant QYLAERYKVNTPMLQSFINYILLF [C21I] has a protein stability index of 2.06.
For QYLAERYKVNTPMLQSFINYGLLF [C21G], the protein stability index was 2.33.
